The DeepSol protein solubility set

Test: soluble on expression in E. coli; label from the status in PepcDB or PDB records

Sequence | soluble on expression in E. coli
SEPQEERETQVAAWLKKIFGDHPIPQYEVNPRTTEILHHLSERNRVRDRDVYLVIEDLKQKASEYESEAKYLQDLLMESVNFSPANLSSTGSRYLNALVDSAVALETKDTSLASFIPAVNDLTSDLFRTKSKSEEIKIELEKLEKNLTATLVLEKCLQEDVKKAELHLSTERAKVDNRRQNMDFLKAKSEEFRFGIKAAEEQLSARGMDASLSHQSLVALSEKLARLKQQTIPLKKKLESYLDLMPNPSLAQVKIEEAKRELDSIEAELTRRVDMMEL | soluble
MLERTQVFVDTSYLLASFYNSWEIGARAQLEIDLPEVVATLGNMIHNQLGQPVHRQFWYDGIPESGPHRYQRALRTCDGVQLRAGQLIEWGERRTQKAVDTRLVADMVLAGVRREFTDIVLVSGDADMIPGVQEAVNAGVRVHLYGFGWDSMSSALRHACDSTTILDPREDFSDCMQLEILEGPLPPVVRNPDEEGEEGEFPAAAAEATAAAAEAAADTTVTTDATDNEATPPVPTPEQVAEKSQREAPAAPIPCPQRPGEPALSEEDCMAEVPAKMPKPVAPKPGAHLPAETPAPAPTATPAPTPSSRTVRVTSTVEESLEVTVSNSAEPNVEAEEADTPATPRPAPNPSMMAPRRKLRSRYVPLPNEVWASAGYQTPFDVGQQYALWWFDNAATPEQRDSAHLLSGGGLPPEIDRPLLQFACETLHEYTLTEAQRVGLRDGFHSGIRGVLINNQNS | not soluble
KSIVKIRNRMAAETQTLNFGPEWLRALSSGGSITSPPLSPALPKYKLADYRYGREEMLALFLKDNKIPSDLLDKEFLPILQEEPLPPLALVPFTEEEQRNFSMSVNSAAVLRLTGRGGGGTVVGAPRGRSSSRGRGRGRGECGFYQRSFDEVEGVFGRGGGREMHRSQSWEERGDRRFEKPGRKDVGKKNGYYCMYSPVLLLGQPLCQGRPNFEEGGPTSVGRKHEFIRSESENWRIFREEQNGEDEDGGWRLAGSRRDGERWRPHSPDGPRSAGWREHMERRRRFEFDFRDRDDERGYRRVRSGSGSIDDDRDSLPEWCLEDAEEEMGTFDSSGAFLSLKKVQKEPIPEEQEMDFRPVDEGEECSDSEGSHNEEAKEPDKTNKKEGEKTDRVGVASEETPQTSSSSARPGTPSDHQSQEASQFERKDEPKTEQTEKAEEETRMENSLPAKVPSRGDEMVADVQQPLSQIPSDTASPLLILPPPVPNPSPTLRPVETPVVGAPGMGSVSTEPDDEEGLKHLEQQAEKMVAYLQDSALDDERLASKLQEHRAKGVSIPLMHEAMQKWYYKDPQGEIQGPFNNQEMAEWFQAGYFTMSLLVKRACDESFQPLGDIMKMWGRVPFSPGPAPPPHMGELDQERLTRQQELTALYQMQHLQYQQFLIQQQYAQVLAQQQKAALSSQQQQQLALLLQQFQTLKMRISDQNIIPSVTRSVSVPDTGSIWELQPTASQPTVWEGGSVWDLPLDTTTPGPALEQLQQLEKAKAAKLEQERREAEMRAKREEEERKRQEELRRQQEEILRRQQEEERKRREEEELARRKQEEALRRQREQEIALRRQREEEERQQQEEALRRLEERRREEEERRKQEELLRKQEEEAAKWAREEEEAQRRLEENRLRMEEEAARLRHEEEERKRKELEVQRQKELMRQRQQQQEALRRLQQQQQQQQLAQMKLPSSSTWGQQSNTTACQSQATLSLAEIQKLEEERERQLREEQRRQQRELMKALQQQQQQQQQKLSGWGNVSKPSGTTKSLLEIQQEEARQMQKQQQQQQQHQQPNRARNNTHSNLHTSIGNSVWGSINTGPPNQWASDLVSSIWSNADTKNSNMGFWDDAVKEVGPRNSTNKNKNNASLSKSVGVSNRQNKKVEEEEKLLKLFQGVNKAQDGFTQWCEQMLHALNTANNLDVPTFVSFLKEVESPYEVHDYIRAYLGDTSEAKEFAKQFLERRAKQKANQQRQQQQLPQQQQQQPPQQPPQQPQQQDSVWGMNHSTLHSVFQTNQSNNQQSNFEAVQSGKKKKKQKMVRADPSLLGFSVNASSERLNMGEIETLDDY | soluble
MGSDKIHHHHHHMTLTKEQLLNRGIEVIDKAENEGITLRVIGGAAIALIAKKGSELYPRVYKDIDYFGLSSQSTKISRFLEGIGLIPNKRFNALHGHIRLMFFDPIINSTVDVFLDEFVMCHKLVLKDRLRIMKYTIPTSDLFLTKMQIIQLTENDKKDIAALLYDVELGERDDEKTMNYNYIAKILSEDWGFYKTYTINHDRVLEFMKNDKNREIIEPKLVKLREIIEKHPKSIKWKMRAKIGEKVKWYEEPEEVNTNFTQQ | not soluble
MLERRDKEITDLKRRVANMVVVGKISHVDHKNARYRVKTGNLVSDWIPDTQARAGKTRSYEGRDVGEQVVVVSSSGDLSQGVIVGSIHTDANQAADKGNLHKTLYPDGTTIEYDDEQNSYALHLTSGGKFSLTISDGVSIKGDGKKLELQAAEGIKIISQGDLSLSAEKNIALKAGGSVSLHSDDGIALHSSEGVSIHSSDLKHNGTNIGNSHVHGGVSPGGSMTGGPN | soluble
MLPPPRREPDWSAQAFRWHRQGLAGWLEAVHEPHAVALDRLACVDAQREQLLANTRQFVAGLPANNVLLTGARGTGKSSLVKALLPEFGRDGLRLIEIDREHLADLPQLVELLSGRPERFVLFCDDLSFEHGDAGYKALKSALDGGLARRCDNLLVYATSNRRHLLPEQMSENREGWLRDGEIHPGEAVEEKVSLSDRFGLWLSFYPFDQDAYLAAVREWLGHFGLKYGDKAERAALQWSLSRGSRSGRVAWQFACHWAGSQKLARRSGKKLEHHHHHH | not soluble
MLEIRHLKTLHALREADSLVDAAERLHLTQSALSHQFKELEERMGMPLFVRKTKPVRFTSAGLRLLQLADSMLPQLRSAERDIARLAGGTAGRLHMAIECHSCFQWLMPTIDQFRDAWPEVELDLSSGFSFAPLPALARGDLDLVVTSDPLELPGITYVPLFTYEAMLAVANQHALASKPYIVPEDLLPETLITYPVERDRLDIFTRFLEPADIEPAQVRTSELTVMMMQLVASGRGVCGMPHWALHEYSSRGYVKAKRLGEKGLFATLYAGIRADMLDAPYMRDFLLTAKDTSFSTLDGVSVVR | not soluble
MTAENIVVVAVDGSEASQNAVRWAANTANKRGVPLRLAASYTMPQFLYAEGMVPPQELFDELQSETMDMIEAARVVAHEVAPDIKIGYVIAEGSPIDMLLDMSSDVTMIVMGSRGLGGLSGMVMGSVSAAVVSHADCPVVVVRSDNHVTETNKYGPVVVGVDGSDVSQRATEFAFEEAQARGAKLVAIHTWMDMQVQASLAGLAAAQQEWEIIEKEQTTLLKDRLQPLLERFPDVEVEMVITRDRPVRALEDCAHNAQLLVVGSHGRGGFRGMLLGSTSRALLQSAPCPMVVVRPNEKEN | not soluble
MSLHGRLRDILRLLMAAEAPVTSSFFAAQLNVTTRTVRNDIKELQGVLSGHGAFVQSVRGSGYKLRIDDEQVFRTLLQDEFQQKKGLPVLPEERMAYLMKRLLLADHYLKLDELAEELFISKSTLQTDLKEVKKRLLPYRIVMETRPNYGFKLRGDEVQMRYCMAEYIVDERETEIDVLNEKADILPKEEIEIIRSAILKKMKNDRIPLSNMGLNNLIIHIAIACKRIRTENYVSLFPKDMDHILHQKEYQAAEAIVKELESKLSVTFPKDETAYITMHLLGTKRMTQSQCGEDTFSIEEETDQLTLAMIKAVDRELKLGILHDKELKIGLALHMKPAISRNRYGMNLRNPMLAAIKEHYPLAFEAGIIAGIVIKEQTGIEIHENEIGYLALHFGAAIERKKTESPPKRCIIVCASGAGSAQLLREKLRSHFGKRLDILGTAEYYSLDQMSYESIDFVISTIPIKKELPVPVLKVNTILGGTDFTKIESILSDEKEKANRYLKKELVFFQEDLRSKEEVIQFLGQKVVECGFADEEIIDSIFEREDMSPTCFGNLVAIPHPLVPQTKTTFWAVCTLKKPIDWESQRVQFVCLLCVEKENKADLQSMYKLLGSILDDPAAMNQLIKCRSYQELSDVFDQKMLSEGHHHHHH | soluble
MTMDFQITRRYPCSYLPGELARSRIVVTDDTLSDSNTYAQLIQQGYRRSGSLIYRPDCDYCHACIPVRIPVELFDPNRTQRRIWKRHQHLQIAWHPLHFDPVHFDLYQRYQKSRHTNGSMDQDDENGRKQYRDFLLKSTVDSFLVTFHENEQLRMVSIIDRLPDGLSPVYTFFEPDVPGSSYGTFNILWQTAQCRADRLPYLYLGYWIANSRKMHYKANFQPLQYLIDNQWQYRTTNRLEHHHHHH | not soluble
MGHHHHHHSHQMVNQQQNKFDLRPLMEAVDTVKQKITLLENNDQRLAVLEEETNKHDTHINIHKAQLSKNEERFKLLEGTCYNGKLIWKVTDYKMKKREAVDGHTVSIFSQSFYTSRCGYRLCARAYLNGDGSGRGSHLSLYFVVMRGEFDSLLQWPFRQRVTLMLLDQSGKKNIMETFKPDPNSSSFKRPDGEMNIASGCPRFVAHSVLENAKNAYIKDDTLFLKVAVDLTDLEDL | not soluble
MELKDRIKAARKHAHLSQVQLAQAVGMTQTSISDLERGKSRATSFVAQIAGACGVNPLWLAEGRGEMLAERGQANAGPNASWLGAVESWDDETPLDADEIELPFYKEIELSGGKGSTVILQTGGRKLRFGKYTLRKKNIDPASAACVTVSGNSMEPVLPDGSTVGVDTSARTIKDGDMYAFDHDGQLRVKLLYRLPGGGLRIRSFNSDEHPDERYEPQEAAEHINVIGRVFWYSVLV | not soluble
PYSYDLIFGDVNTTNFYAQFAKKHNTHMWSKIQSTQNGEIGFHKNSKTGQQRH | soluble
MSKPDDPAYHWNGAELDLDAYLARIGFAGERAPTLATLRELVYRHTTAIPFENLEAVLGRPVRLDLATLQDKLVHSRRGGYCYENAGLFAAALERLGFGVTGHTGRVTMGAGGLRPATHALLRVTTADDDRVWMCDVGFGRGPLRPYELRPQPDEFTLGDWRFRLERRTGELGTDLWVLHQFGRDGWVDRYTFTTAPQYRIDFEVGNHFVSTSPRSPFTTRPFLQRFHSDRHHVLDGLTLITERPDGSADIRALTPGELPEVINELFDIELPGPDLDALTTGSWLERVAAGTP | soluble
MEQIERIAQLYPVIMRVMGRIRSLVHDGMDLTYNQYKMLLTIYDKGSCPLNLLARELGIAMSSASEMVERLVNLGIVYRAVDEDNRRQVIIYTTDRGEELIRELRHGIIENYRQLFARLPEGDQERLATAFETIADVLGKLE | not soluble
MNTVADVMAGNDGEYCFHARTGKYGVYLKQDWRNEYNVGDIAVYEDSKPGTLNDFLIAPDEGDLKPDVVKRFEEMVAQAQQSAGAAAGNAQQTAQDVAAAATARDDAQRFAEKARQDATVTAEDRKATAEDVTSTGANAAAAGQSAQDAAGYARAAEQAKNDIDAALTGTLKTANHLSETAAAGEKAQQKSRDNLGLKSAATMEAQSDIYDRTKGRLAIPGAFGFGCAFLPEDVIRFDTKSDFLAWVRNALPGEYSVAGPYGIIIPDTRFEGVLSIRWTDARPETTEPRYRAKSLTFYGINGPIYHTRYCYWPISRLTGWVKINITTEDIIYRIVASSVRNRWGDPDIGGLIIAAYQGEADGDKVIRLVRGQSYRGSRLGPVGISVPGTPTGTYIVSPQFFITGCSEHSLPGSYCALSGVPDAHVSGAMPGLFIRTSRGMHRGN | not soluble
